# Bridge positions count the residues as written; N and C are the ends. Ends that are not written are not given here.
# Assays:
# INS-1E cells [1] = assay: Cell viability by resazurin reduction; format: cell-based, Rat; details: freshly dissolved peptide up to 50 μM, 24 h, at least five assays
# Description: (§1) Rat INS-1E cells were cultured in treated black-wall clear-bottom 96-well plates at a density of 25,000 cell/well in RPMI-1640 medium supplemented with 10% FBS, 2 mM L-glutamine, 100 U/ml penicillin, 100 μg/ml streptomycin, 10 mM HEPES, 1 mM sodium pyruvate and 50 μM β-mercaptoethanol. After 48 h of incubation at 37°C in 5% CO2, cells were treated with 50 μL of peptide freshly dissolved in 20 mM Tris-HCl, pH 7.4. […] Cell viability (%) was calculated from the ratio of the fluorescence of the treated cells to the vehicle-treated cells. Data of at least five assays performed with different peptide lots were averaged and expressed as the mean ± S.D. Statistical analysis was performed using Student’s t test, and statistically significant difference was established at (*) p < 0.05; (**) p < 0.005; (***) p < 0.0005. For Live/Dead viability assay, cells were plated in 12-well plates at density of 250,000 cell/well for 48 h before treatment with 25 μM peptide.
# [2] = Peptide self-assembly under fully quiescent conditions (CD, ThT and ANS fluorescence, TEM, AFM); format: physicochemical; details: 50 μM peptide; for Assemblies observed by TEM after 48 h incubation: negative stain TEM; for Overall effect of the substitution on amyloid formation, in words: CD, ThT, ANS, TEM, compared with unmodified IAPP; for Incubation time at which the random coil to β-sheet conformational transition is seen (far-UV CD) / Secondary conformation / conformational transition over incubation (far-UV CD), in words: fully quiescent; for Incubation time at which the random coil to β-sheet conformational transition is seen (far-UV CD): microtubes, diluted to 25 μM for CD; for ThT fluorescence of incubated peptide, in words: diluted to 25 μM with 40 μM ThT; for Secondary conformation / conformational transition over incubation (far-UV CD), in words: up to 7 days
# Description: Solutions were prepared by dissolving the peptide at a concentration of 50 μM in 20 mM Tris-HCl, pH 7.4, and were incubated at room temperature without agitation in 1.5 ml Eppendorf microtubes. For IAPP12-17, the lyophilized peptide was dissolved in 20 mM acetate pH 6.5 in the presence of 3% DMSO, or HFIP, at a final concentration of 500 μM and the peptide solution was incubated at 37 °C under constant rotational agitation.
# At the indicating time of incubation, peptide solutions were diluted to 25 μM in presence of 40 μM ThT, or 25 μM 8-anilino-1-naphthalenesulfonic acid (ANS). Fluorescence was measured in 10-mm pathlength microcells using a PTI QuantaMaster spectrofluorometer. For ThT, excitation was set at 440 nm, and the emission spectrum from 450 to 550 nm was recorded. For ANS, the excitation was set at 355 nm, and the emission scan was recorded from 385 to 585 nm.
# After incubation, peptide solutions were diluted in water to 25 μM and incorporated into a 2-mm path length quartz cell. For IAPP12-17, the solution was diluted to 150 μM. Far-UV CD spectra were recorded from 190 to 260 nm using a Jasco J-815 CD spectropolarimeter at 25°C. The wavelength step was set at 0.5 nm with an average time of 10 s per scan at each wavelength. Spectra were background-subtracted with buffer solution. Raw data were converted to mean residue ellipticity (MRE): MRE=Mean residue weight (g/mol)X CD signal (deg)/10 X pathlength (cm) X peptide concentration (g/mL)
# After incubation, peptide solutions were diluted to 10 μM, or 100 μΜ for IAPP12-17, before being applied on glow-discharged carbon films on 300-mesh copper grids. Samples were adsorbed and negatively stained with 1.5% uranyl formate for 45 s. Images were recorded using a FEI Tecnai G2 Spirit Twin microscope operating at 120 kV and equipped with a Gatan Ultrascan scan 4,000 4k × 4k CCD camera system.
# After incubation, peptide solutions were diluted in 1% acetic acid to a concentration of 7.5 μΜ. […] Images were recorded using Veeco/Bruker multimode AFM instrument using ScanAsyst-air mode with a silicon tip (2–12 nm tip radius, 0.4 N/m force) on a nitride lever. Images were taken at 0.977 Hz and 512 scan/min.
# [3] = Kinetics of amyloid formation monitored by ThT fluorescence; format: physicochemical; details: 40 μM ThT, 20 mM Tris-HCl pH 7.4, 25°C, no agitation
# Description: Aggregation mixtures were prepared by dissolving the lyophilized peptide at a concentration of 50 μM in 20 mM Tris-HCl, pH 7.4. Assays were performed at 25°C without stirring in sealed black-wall clear-bottom 96-well nonbinding surface plates with 100 μL/well. Final peptide concentrations were 12.5 and 25 μM, and thioflavin T (ThT) concentration was fixed at 40 μM. Fluorescence was measured every 10 min (excitation: 440 nm, emission: 485 nm) and data from triplicate wells were averaged, corrected by subtracting the blank control, and plotted as ThT fluorescence vs. time. Data were normalized with maximum ThT fluorescence intensity obtained for unmodified IAPP. Data were fitted to a sigmoidal Boltzmann model: Y=Yo+(Ymax−Yo)/1+e^−(T−T50)/ K where T 50 is the time required to reach half of the maximum fluorescence intensity, k is the apparent first-order constant, and Y max and Y 0 are the maximum and initial ThT fluorescence values. Lag time corresponds to T50 - 2/k. Data of at least six assays performed with different peptide lots were averaged and expressed as the mean ± S.D. Statistical analysis was performed using Student’s t test, and statistically significant difference between IAPP and analogs was established at (*) p < 0.05; (**) p < 0.005; (***) p < 0.0005.
# INS-1E cells [4] = assay: Live/Dead viability assay (calcein-AM / ethidium homodimer-1, fluorescence microscopy); format: cell-based, Rat; details: 25 μM freshly solubilized peptide, 24 h, calcein-AM (green, live) and ethidium homodimer-1 (red, dead)
# Description: as §1
# [5] = 20 mM Tris-HCl pH 7.4, quiescent
# [6] = 20 mM Tris-HCl pH 7.4, room temperature
Substance,"Cytotoxicity compared with unmodified IAPP, in words (INS-1E cells [1])","Assemblies observed by TEM after 48 h incubation [2, 5]","Overall effect of the substitution on amyloid formation, in words [2, 5]","Incubation time at which the random coil to β-sheet conformational transition is seen (far-UV CD) [2, 6] [h]","ThT fluorescence of incubated peptide, in words [2, 5]","Secondary conformation / conformational transition over incubation (far-UV CD), in words [2, 6]",also measured
"A13P: full-length IAPP with Ala13 substituted by Pro (KCNTATCATQRLPNFLVHSSNNFGAILSSTNVGSNTY; disulfide 2-7; ends not checked; UniProt P10997 34-70, looked up, variant A13P)",increased the cytotoxicity of IAPP at 12.5 and 25 μM,Prototypical fibrils,accelerated amyloid formation,4,–,–,"Incubation time at which ThT and ANS positive signal arises ([2]; 20 mM Tris-HCl pH 7.4, quiescent, diluted to 25 μM with 40 μM ThT or 25 μM ANS): 6 h"
"L12A: full-length IAPP with Leu→Ala substitution at position 12 (KCNTATCATQRAANFLVHSSNNFGAILSSTNVGSNTY; disulfide 2-7; ends not checked; UniProt P10997 34-70, looked up, variant L12A)",reduced IAPP toxicity,long and twisted fibrils,–,–,absence of a ThT-signal,remained mainly under a random coil structure after a week of incubation,"Increase of ThT fluorescence signal ([3]; 12.5 μM peptide): no increase of ThT fluorescence signal could be detected; Lag time of amyloid formation ([3]; 25 μM peptide, nonbinding surface 96-well plate, read every 10 min, lag time = T50 - 2/k, mean ± S.D. of at least six assays): 13.5 ± 4.1 h; ANS fluorescence of incubated peptide, in words ([2]; 20 mM Tris-HCl pH 7.4, quiescent, diluted to 25 μM with 25 μM ANS): low ANS fluorescence; Cell death in Live/Dead assay, in words (INS-1E cells [4]): decreased toxicity compared to unmodified IAPP"
"A13G: full-length IAPP with Ala13 substituted by Gly (KCNTATCATQRLGNFLVHSSNNFGAILSSTNVGSNTY; disulfide 2-7; ends not checked; UniProt P10997 34-70, looked up, variant A13G)",higher cytotoxicity compared to unmodified IAPP,presence of fibrillar aggregates,accelerates IAPP amyloid self-assembly,≤ 6,–,–,–
"N14P: full-length IAPP with Pro at position Asn14 (KCNTATCATQRLAPFLVHSSNNFGAILSSTNVGSNTY; disulfide 2-7; ends not checked; UniProt P10997 34-70, looked up, variant N14P)",–,–,–,24,–,–,"Assemblies observed by AFM after 24 h incubation ([2]; 20 mM Tris-HCl pH 7.4, room temperature, no agitation, 24 h): dense network of fibrils"
"F15P: full-length IAPP with Pro at position Phe15 (KCNTATCATQRLANPLVHSSNNFGAILSSTNVGSNTY; disulfide 2-7; ends not checked; UniProt P10997 34-70, looked up, variant F15P)",–,absence fibrillar aggregates,–,–,–,–,"Assemblies observed by AFM after 96 h incubation ([2]; 20 mM Tris-HCl pH 7.4, room temperature, no agitation, 96 h): typical fibrils"
"L16P: full-length IAPP with Leu16 substituted by Pro (KCNTATCATQRLANFPVHSSNNFGAILSSTNVGSNTY; disulfide 2-7; ends not checked; UniProt P10997 34-70, looked up, variant L16P)",less cytotoxic than unmodified IAPP,–,completely inhibited amyloid formation,–,absence of a ThT and ANS signal,random coil conformation observed after 7 days incubation,–
